“And” between values parts separate entries of the source, which are not always exact repeats. Identical values can stand only once.
B1: NGF: Ultrapure 2.5S nerve growth factor (printed 2.55 NGF) from Harlan Bioproducts (protein, UniProt P01139 122-241, looked up)
Beta-nerve growth factor: SSTHPVFHMGEFSVCDSVSVWVGDKTTATDIKGKEVTVLAEVNINNSVFRQYFFETKCRASNPVESGCRGIDSKHWNSYCTTTHTFVKALTTDEKQAAWRFIRIDTACVCVLSRKATRRG

Assays:
[1] = plasma half-life from plasma clearance curves after I.V. bolus; settings: for t1 (plasma half-life): Table 5, n = 6
Protocol: Animals and Reagents. Male Sprague-Dawley rats (24-weeks-old, 460-500 g) were obtained from Bio Lab (St. Paul) and were used to determine the PS and Vp measurements. All animals were kept for a minimum of 3 days under standard housing conditions and feeding schedules prior to the experiments. […] Insulin (Mr =6000) was obtained as humulin RU-100 from Eli Lily. […] Affinity purified human IgG was obtained from Accurate Chemicals (Mr =150,000). […] Plasma half-lives were determined from plasma clearance curves for all the proteins using the standard exponential decay equation in In Plot Scientific Graphics (Graph Pad Software).
The experimental protocol employed was based on the methods of Ohno et al. Am. […] Over the next 30 or 60 minutes, serial blood samples were collected from the brachial artery to generate a plasma washout curve.

[2] = PS and Vp of the blood-nerve barrier, radioiodinated I.V. bolus; format: in vivo, rat (Sprague-Dawley)
Protocol: (§1) Free radioactive iodine was separated from the radiolabeled conjugates and agents by dialysis against 0.2M NaI.
(§2) After the final blood sample was collected, the animal was sacrificed, the brain and meninges removed, and the brain dissected into the cortex, caudateputamen (neostriatum), hippocampus, thalamus, brain stem, and cerebellum. The sciatic nerve was also rapidly removed and desheathed. Tissue was lyophilized, and dry weights were determined with a microbalance and converted to respective wet weights with wet weightry weight ratios previously determined for the desheathed rat sciatic nerve and the various brain regions. […] Statistical evaluations were performed using the t-test with significance accepted at the P<0.05 level.

[3] = PS and Vp of the blood-brain barrier, radioiodinated I.V. bolus; format: in vivo, rat (Sprague-Dawley)
Protocol: as §1, §2

[4] = isoelectric focusing (Coomassie blue); format: physicochemical; settings: Coomassie blue stain
Protocol: Protein samples were solubilized in SDS under reducing conditions with 2-mercaptoethanol followed by electrophoresis and staining with Coomassie blue. Pharmacia low molecular weight calibration kit was used for the protein standards. The 40% Bio-Lyte 3/10 ampholyte from Bio-Rad was used for isoelectric focusing with an acrylamide monomer concentration of 25% T and 3% C. Polymerization time was 15 minutes, with 5 minutes allowed for sample diffusion. Electrophoresis time was 45 minutes with increasing voltage to a maximum voltage of 450 volts for the last 15 minutes. IEF standards were obtained from Bio-Rad and contained nine natural proteins with the isoelectic points ranging from 4.45 to 9.6 and were visualized with Coomassie blue.

[5] = system: choline acetyltransferase (ChAT); assay: choline acetyltransferase (ChAT) activity in brain regions after parenteral administration; format: in vivo, mouse (BALB/cJ)
Protocol: Adult BALB/cJ mice were used. The injection site was alternated on a daily basis between I.M. (thigh) and I.V. injection (tail vein), and the vehicle consisted of 1.5 mg/ml of BSA in 0.9% NaCl. The amount of NGF or PUT-NGF injected was 15 μg/day/animal for a duration of 14 days. Three groups of animals (n=7) were injected with either vehicle alone, NGF, and PUT-NGF. At the end of the experiment, the brains were removed and dissected into five regions which included the septum, hippocampus, nucleus basalis (substantia innominata), caudate-putamen (neostriatum), and cortex and stored at -70° C. The septum was dissected from the hippocampus at the fornix and continued into the basal forebrain.
Subsequently, a radiochemical assay using [1-^14 C] acetyl-CoA was performed according to the method of Fonnum. Fonnum, "A rapid radiochemical method for the determination of choline acetyltransferase", J. Neurochem., 24, 407 (1975). Data were expressed as cpm/μg protein and are given as mean ± SEM. Protein concentration was determined by the BCA procedure (Smith et al., "Measurement of protein using bicinchoninic acid", Anal. Biochem., 150, 76 (1985)) with the Pierce assay kit using bovine serum albumin as a standard. Statistical analysis was by the unpaired t-test (two-tailed) with significance accepted as P<0.05.

[6] = 15 μg/day/animal, 14 days, x ± SEM, n = 7

Row | Molecule | PS of the BNB ([2]; nerve / endoneurium) | PS of the BNB ([2]; nerve, x ± SEM) | Vp (residual plasma volume) of the BNB ([2]; nerve, x ± SEM) | PS of the BBB ([3]; brain stem, x ± SEM) | Vp of the BBB ([3]; brain stem, x ± SEM) | PS of the BBB ([3]; caudate-putamen, x ± SEM) | Vp of the BBB ([3]; caudate-putamen, x ± SEM) | PS of the BBB ([3]; cerebellum, x ± SEM) | Vp of the BBB ([3]; cerebellum, x ± SEM) | PS of the BBB ([3]; cortex, x ± SEM) | Vp of the BBB ([3]; cortex, x ± SEM) | Vp of the BBB ([3]; hippocampus, x ± SEM) | PS of the BBB ([3]; thalamus, x ± SEM) | t1 (plasma half-life) ([1]; x ± SEM) [min] | pI (isoelectric point) [4] | PS of the BBB ([3]; hippocampus, x ± SEM) | Vp of the BBB ([3]; thalamus, x ± SEM) | further results
1 | INS: Insulin (Mr =6000) obtained as humulin RU-100 from Eli Lily [reference compound] | 3.32e-05 mL/g/s | 33.19 ± 2.05 ml/g/sec × 10^6 | 5.05 ± 0.87 µL/g | 22.62 ± 3.35 ml/sec × 10^6 | 12.35 ± 0.99 µL/g | 16.88 ± 1.79 ml/sec × 10^6 | 6.08 ± 0.30 µL/g | 20.12 ± 2.78 ml/sec × 10^6 | 10.56 ± 0.96 µL/g | 15.78 ± 2.45 ml/sec × 10^6 | 6.44 ± 0.49 µL/g | 7.04 ± 0.68 µL/g | 18.42 ± 2.41 ml/sec × 10^6 |  |  |  |  | t1/2 (plasma half-life) ([1]; Table 4, x ± SEM, n = 5): 1.18 ± 0.09 min
2 | SOD: superoxide dismutase isolated from bovine erythrocytes, monomeric molecular weight 16,250 daltons | 2.24 10^-6 mL/g/sec | 1.79 ± 0.12 ml/g/sec × 10^6 and 2.24 ± 0.22 ml/g/sec × 10^6 | 1.87 ± 0.10 µL/g and 2.63 ± 0.22 µL/g | 3.19 ± 0.13 ml/g/sec × 10^6 and 3.13 ± 0.14 ml/g/sec × 10^6 | 13.77 ± 2.10 µL/g and 16.26 ± 1.22 µL/g | 1.52 ± 0.07 ml/g/sec × 10^6 and 1.78 ± 0.11 ml/g/sec × 10^6 | 5.62 ± 0.23 µL/g and 5.76 ± 0.40 µL/g | 2.94 ± 0.14 ml/g/sec × 10^6 and 2.69 ± 0.11 ml/g/sec × 10^6 | 10.20 ± 0.89 µL/g and 14.61 ± 1.09 µL/g | 1.81 ± 0.06 ml/g/sec × 10^6 and 1.80 ± 0.09 ml/g/sec × 10^6 | 6.13 ± 0.34 µL/g and 5.77 ± 0.34 µL/g | 7.94 ± 0.25 µL/g and 7.26 ± 0.77 µL/g | 2.61 ± 0.15 ml/g/sec × 10^6 and 2.71 ± 0.20 ml/g/sec × 10^6 | 3.64 ± 0.21 | 4.95 | 1.98 ± 0.08 ml/g/sec × 10^6 and 2.15 ± 0.01 ml/g/sec × 10^6 | 9.73 ± 0.43 µL/g and 12.83 ± 1.97 µL/g | PS of the BNB ([2]; nerve): 1.79 ± 0.12 10^-6 mL/g/sec; PS of the BNB relative to native albumin ([2]; nerve, albumin compared from Poduslo et al. 1994): approximately 22 fold; PS of the BBB ([3]; brain stem): 3.13e-06 mL/g/s; PS of the BBB relative to native albumin ([3]; brain stem): 54 fold; PS of the BBB ([3]; caudate-putamen): approximately 1.8 ×10^-6 ml/sec; PS of the BBB ([3]; cortex): approximately 1.8 ×10^-6 ml/sec; PS of the BBB relative to native albumin ([3]; cortex): 12 fold
3 | SPD-SOD: SOD modified with spermidine using water-soluble carbodiimide at pH 4.7 | 2.41e-05 mL/g/s | 24.1 ± 1.23 ml/g/sec × 10^6 | 3.03 ± 0.35 µL/g | 36.85 ± 1.70 ml/g/sec × 10^6 | 13.94 ± 1.29 µL/g | 32.65 ± 2.03 ml/g/sec × 10^6 | 8.23 ± 0.40 µL/g | 37.28 ± 1.01 ml/g/sec × 10^6 | 12.59 ± 0.90 µL/g | 25.00 ± 0.90 ml/g/sec × 10^6 | 7.10 ± 0.31 µL/g | 7.73 ± 0.58 µL/g | 34.35 ± 1.42 ml/g/sec × 10^6 | 0.75 ± 0.05 |  | 28.75 ± 1.39 ml/g/sec × 10^6 | 11.23 ± 0.63 µL/g | decrease of plasma half-life versus native protein ([1]; fold less than native protein): 4.9 fold; PS of the BNB, RI vs. native protein ([2]; nerve): 10.8; PS of the BNB, relative increase vs. native protein ([2]; nerve): 10.8 fold; Vp of the BNB, RI vs. native protein ([2]; nerve): 1.2; PS of the BBB, RI vs. native protein ([3]; brain stem): 11.8; Vp of the BBB, RI vs. native protein ([3]; brain stem): 1.0; PS of the BBB, RI vs. native protein ([3]; caudate-putamen): 18.3; Vp of the BBB, RI vs. native protein ([3]; caudate-putamen): 1.4; PS of the BBB, RI vs. native protein ([3]; cerebellum): 13.9; Vp of the BBB, RI vs. native protein ([3]; cerebellum): 1.2; PS of the BBB, RI vs. native protein ([3]; cortex): 13.9; Vp of the BBB, RI vs. native protein ([3]; cortex): 1.2; PS of the BBB, RI vs. native protein ([3]; hippocampus): 13.4; Vp of the BBB, RI vs. native protein ([3]; hippocampus): 1.1; PS of the BBB, RI vs. native protein ([3]; thalamus): 12.7; Vp of the BBB, RI vs. native protein ([3]; thalamus): 1.2
4 | B1 |  | 1.74 ± 0.15 ml/g/sec × 10^6 | 1.53 ± 0.12 µL/g | 3.38 ± 0.09 ml/g/sec × 10^6 | 16.60 ± 1.01 µL/g | 1.64 ± 0.04 ml/g/sec × 10^6 | 5.78 ± 0.42 µL/g | 2.93 ± 0.10 ml/g/sec × 10^6 | 11.54 ± 0.71 µL/g | 1.91 ± 0.07 ml/g/sec × 10^6 | 7.19 ± 0.20 µL/g | 8.56 ± 0.21 µL/g | 2.79 ± 0.09 ml/g/sec × 10^6 |  | major band with an isoelectric point less than cytochrome c | 2.30 ± 0.10 ml/g/sec × 10^6 | 11.65 ± 0.81 µL/g | ChAT activity, caudate-putamen [5, 6]: 559 ± 47 cpm/μg protein; ChAT activity, cortex [5, 6]: 294 ± 9 cpm/μg protein; ChAT activity, hippocampus [5, 6]: 236 ± 17 cpm/μg protein; ChAT activity, nucleus basalis [5, 6]: 109 ± 15 cpm/μg protein; ChAT activity, septum [5, 6]: 443 ± 65 cpm/μg protein; ChAT activity versus comparator, in words ([5]; NGF vs vehicle: five brain regions, PUT-NGF vs NGF: hippocampus, caudate-putamen, cortex): no significant difference; ChAT activity, NGF vs. Vehicle % Increase ([5]; caudate-putamen): 18.4%; ChAT activity, NGF vs. Vehicle % Increase ([5]; cortex): 4.6%; ChAT activity, NGF vs. Vehicle % Increase ([5]; hippocampus): 0.4%; ChAT activity, NGF vs. Vehicle % Increase ([5]; nucleus basalis): 12.4%; ChAT activity, NGF vs. Vehicle % Increase ([5]; septum): 0.2%

Reference: patent publication US5670477A, “Method to enhance permeability of the blood/brain blood/nerve bariers to therapeutic agents” (Poduslo; Joseph F., priority 1995, dated 1997)
